Test results reported in US20180086841A1 (Merck Sharp & Dohme, published 2018).

Key:
[1] = molecular target: T1, Macaca mulatta CD27 (mmCD27) (Macaca mulatta (rhesus) / Macaca …, UniProt P26842 21-260 (human entry)); assay: cell ELISA on CHO-K1 transfectants (selection of the clone)
T1 construct: also called Rhesus CD27; rhesus monkey CD27
T1 chain: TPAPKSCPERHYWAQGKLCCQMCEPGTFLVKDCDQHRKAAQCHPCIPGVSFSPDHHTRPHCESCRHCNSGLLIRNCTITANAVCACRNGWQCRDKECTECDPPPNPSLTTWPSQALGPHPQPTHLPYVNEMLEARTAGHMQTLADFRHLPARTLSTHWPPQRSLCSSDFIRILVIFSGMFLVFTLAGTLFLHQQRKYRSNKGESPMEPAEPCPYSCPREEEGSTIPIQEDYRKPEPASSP
Description: (§1) On day eight, supernatants were screened by cell-ELISA for reactivity to hCD27 as described above. In addition, the hCD27-reactive supernatants were tested for binding to Macaca Mulatta CD27 (mmCD27) expressed on CHO-K1 cells. […] In the cell-ELISA, all incubation steps were followed by a wash step with PBST (PBS with 0.01% Tween 20). Parental CHO-K1, CHO-K1.hCD27, or CHO-K1.mmCD27 cells were seeded (40,000 cells/well) in tissue culture plates and incubated overnight at 37° C. The next day, culture medium was removed and cells were incubated for one hour with (dilutions of) B-cell supernatants at 37° C. […] Subsequently, cells were washed 6 times with PBST and anti-hCD27 immunoreactivity was visualized with 100 μl TMB Stabilized Chromagen (Invitrogen, cat. no. SB02). Reactions were stopped with 100 μl 0.5 M H₂SO₄ and absorbances were read at 460 and 620 nm.
(§2) Hybridoma supernatants were tested in Cell-ELISA experiments for binding to CHO-K1.mmCD27 or CHO-K1 cells expressing hCD27 (A59T), as described above. […] A serial dilution of the supernatants was added.

[2] = molecular target: T2, human CD27 (A59T) (human, UniProt P26842 21-260); assay: as above
T2 construct: also called hCD27 (A59T); human CD27 variant p.Ala59Thr
Description: as §1, §2

[3] = molecular target: T3, V49A; assay: flow cytometry on CHO-K1 transfectants, left sub-column
T3 construct: also called hCD27 V49A
T3 receptor chain: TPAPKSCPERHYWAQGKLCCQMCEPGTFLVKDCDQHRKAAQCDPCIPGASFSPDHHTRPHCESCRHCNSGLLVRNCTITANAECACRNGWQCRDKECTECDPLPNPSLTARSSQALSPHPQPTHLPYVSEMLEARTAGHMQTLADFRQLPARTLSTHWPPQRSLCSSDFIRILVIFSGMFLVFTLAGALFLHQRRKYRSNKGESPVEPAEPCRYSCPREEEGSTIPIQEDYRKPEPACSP
Description: (§3) The hCD27 variants that were tested are listed. Amino acids correspond to the UniProt P26842-1 sequence. Amino acids 1-20 constitute the signal peptide. Binding is expressed as the geometric mean of the FITC signal, relative to antibody binding to hCD27, which was set at 100%.
(§4) The ability of several anti-hCD27 antibodies to bind to a series of hCD27 alanine mutants was determined using CHO-K1 cells, transiently transfected pCI-neo empty vector, pCI-neo.hCD27 and several pCI-neo.CD27Ala mutant constructs.
(§5) Detached cells were transferred to 96 wells round-bottomed well plates at approximately 1.2×10⁵ cells/well. After spinning down the cells, discarding the supernatants and re-suspending the cells in the residual volume, the primary antibodies were added and incubated for 30 minutes at 4° C. Cells were washed three times with DPBS/BSA 1%, followed by centrifugation, discarding of the supernatants and re-suspension in the residual volume. […] After washing once, antibody binding was detected using the HTS plate reader (FACS Canto II) and FlowJo software for data analysis. Debris, dead cells and doublets were excluded from the analysis. Binding was expressed as the geometric mean of the FITC signal, relative to antibody binding to hCD27, which was set at 100%.

[4] = molecular target: T4, K17A; assay: as above
T4 construct: also called hCD27 K17A
T4 receptor chain: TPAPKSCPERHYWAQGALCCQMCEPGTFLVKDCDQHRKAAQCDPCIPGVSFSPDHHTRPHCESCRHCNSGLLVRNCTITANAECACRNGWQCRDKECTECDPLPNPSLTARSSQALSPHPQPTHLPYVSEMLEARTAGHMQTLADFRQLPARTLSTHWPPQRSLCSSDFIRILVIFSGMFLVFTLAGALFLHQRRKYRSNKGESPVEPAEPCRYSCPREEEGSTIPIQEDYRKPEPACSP
Description: as §3, §4, §5

[5] = molecular target: T5, G16A; assay: as above
T5 construct: also called hCD27 G16A
T5 receptor chain: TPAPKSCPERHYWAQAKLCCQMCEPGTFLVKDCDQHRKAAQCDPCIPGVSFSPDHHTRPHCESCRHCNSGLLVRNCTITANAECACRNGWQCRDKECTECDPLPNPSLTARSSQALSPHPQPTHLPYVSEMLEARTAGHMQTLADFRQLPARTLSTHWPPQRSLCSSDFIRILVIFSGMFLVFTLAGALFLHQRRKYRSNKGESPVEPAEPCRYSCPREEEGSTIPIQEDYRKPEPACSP
Description: as §3, §4, §5

[6] = molecular target: T6, D32A; assay: as above
T6 construct: also called hCD27 D32A
T6 receptor chain: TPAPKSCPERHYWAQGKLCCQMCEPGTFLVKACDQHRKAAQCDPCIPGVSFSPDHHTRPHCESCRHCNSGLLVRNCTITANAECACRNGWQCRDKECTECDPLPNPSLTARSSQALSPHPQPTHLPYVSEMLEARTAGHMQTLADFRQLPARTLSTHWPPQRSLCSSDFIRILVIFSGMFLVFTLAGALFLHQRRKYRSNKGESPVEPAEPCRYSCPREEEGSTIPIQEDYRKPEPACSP
Description: as §3, §4, §5

[7] = molecular target: T7, H60A; assay: as above
T7 construct: also called hCD27 H60A
T7 receptor chain: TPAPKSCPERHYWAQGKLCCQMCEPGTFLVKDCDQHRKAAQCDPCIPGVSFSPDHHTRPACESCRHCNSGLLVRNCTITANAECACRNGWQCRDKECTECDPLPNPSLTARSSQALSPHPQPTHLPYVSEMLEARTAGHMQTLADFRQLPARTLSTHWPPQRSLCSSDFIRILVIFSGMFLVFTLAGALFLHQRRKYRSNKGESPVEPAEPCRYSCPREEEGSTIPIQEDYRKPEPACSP
Description: as §3, §4, §5

[8] = molecular target: T8, Q41A; assay: as above
T8 construct: also called hCD27 Q41A
T8 receptor chain: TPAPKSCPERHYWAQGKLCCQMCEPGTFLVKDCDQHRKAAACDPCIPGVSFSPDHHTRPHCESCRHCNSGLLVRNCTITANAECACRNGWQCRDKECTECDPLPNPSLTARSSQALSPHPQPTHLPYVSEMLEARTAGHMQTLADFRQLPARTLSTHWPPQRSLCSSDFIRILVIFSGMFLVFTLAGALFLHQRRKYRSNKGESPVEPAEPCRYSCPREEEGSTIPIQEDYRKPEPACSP
Description: as §3, §4, §5

[9] = molecular target: T9, R10A; assay: as above
T9 construct: also called hCD27 R10A
T9 receptor chain: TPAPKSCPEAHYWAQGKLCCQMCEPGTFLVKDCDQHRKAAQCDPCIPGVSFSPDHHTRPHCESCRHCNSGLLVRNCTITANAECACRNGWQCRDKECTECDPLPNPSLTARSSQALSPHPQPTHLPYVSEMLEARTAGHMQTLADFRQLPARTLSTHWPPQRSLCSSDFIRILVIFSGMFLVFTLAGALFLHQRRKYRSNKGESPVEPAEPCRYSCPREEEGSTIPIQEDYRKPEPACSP
Description: as §3, §4, §5

[10] = molecular target: T10, R37A; assay: flow cytometry on CHO-K1 transfectants;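 note: Anti-hCD27 antibodies tested on transiently transfected CHO-K1 cells bearing hCD27 alanine mutants, 30 min at 4 °C primary incubation, FITC readout excluding debris, dead cells and doublets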
T10 construct: also called hCD27 R37A
T10 receptor chain: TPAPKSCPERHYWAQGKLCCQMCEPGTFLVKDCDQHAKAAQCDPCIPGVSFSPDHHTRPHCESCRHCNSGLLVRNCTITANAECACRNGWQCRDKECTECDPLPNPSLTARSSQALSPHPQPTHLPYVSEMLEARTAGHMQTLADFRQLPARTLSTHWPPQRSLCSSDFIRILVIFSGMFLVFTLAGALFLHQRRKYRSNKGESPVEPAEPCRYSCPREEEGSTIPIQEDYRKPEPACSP
Description: as §3, §4, §5

[11] = molecular target: T9, R10A; assay: flow cytometry on CHO-K1 transfectants;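 note: Anti-hCD27 antibodies tested on transiently transfected CHO-K1 cells bearing hCD27 alanine mutants, 30 min at 4 °C primary incubation, FITC readout excluding debris, dead cells and doublets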
Description: as §3, §4, §5

B1: hCD27.131A (mouse parental 131A) (antibody, mouse IgG1, V domains shown)
VH: QIQLVQSGPELKKPGETVKISCKASGYTFTNYGMNWVKQAPGKGLKWMGWINTNTGEPTYAEEFKGRFAFSLETSATTAYLQINNLKNEDTATYFCAREGDAMDYWGQGTSVTVSS
VL: QIVLTQSPAIMSASPGEKVTMTCSASSSVSYMHWYQQKSGTSPKRWIYDTSKLASGVPARFSGSGSGTSYSLTISSMEAEDAATYYCQQWNSYPFTFGSGTKLEIK
notes: Mouse IgG1 antibody; also called mouse hCD27.131A
Q: Does B1 bind [1]?
A: binds

Q: Does B1 bind [2]?
A: binds

Q: And the “binding, WT hCD27 = 100 (GM FITC)” value [3]?
A: 147%

Q: What about the “binding, WT hCD27 = 100 (GM FITC)” value [4] of the same binder?
A: 103%

Q: And the “binding, WT hCD27 = 100 (GM FITC)” value [5]?
A: 94.8%

Q: And the “binding, WT hCD27 = 100 (GM FITC)” value [6]?
A: 113%

Q: What about the “binding, WT hCD27 = 100 (GM FITC)” value [7] of the same binder?
A: 178%

Q: And the “binding, WT hCD27 = 100 (GM FITC)” value [8]?
A: 108%

Q: And the “binding, WT hCD27 = 100 (GM FITC)” value [9]?
A: 103%

B2: hCD27.15-6B (antibody, human IgG4 S228P, kappa, V domains shown)
VH: QVQLVQSGAEVKKPGASVKVSCKASGFIIKATYMHWVRQAPGQRLEWMGRIDPANGETKYDPKFQVRVTITADTSASTAYMELSSLRSEDTAVYYCARYAWYFDVWGQGTLVTVSS
VL: DIQMTQSPSSLSASVGDRVTITCRASENIYSFLAWYQQKPGKAPKLLIYHAKTLAEGVTSRFSGSGSGTDFTLTISSLQPEDSATYYCQHYYGSPLTFGQGTRLEIKR
notes: also called hCD27.15 (humanized 6B); humanized hCD27.15 (human IgG4, Clone 6B)
Q: Which results are given for B2?
A: binding, WT hCD27 = 100 (GM FITC) [10]: 106%; binding, WT hCD27 = 100 (GM FITC) [11]: 58.9%
